Measured values reported in US12447133B2, “Composition and device for preventing hypoglycemia and use thereof” (THE GOVERNING COUNCIL OF THE UNIVERSITY OF TORONTO, priority 2018, dated 2025).

Tests used:
[1] = Stability of released glucagon (far-UV CD and RP-HPLC); type: physicochemical
Procedure: The effect of glucose concentration on microgel size was characterized using dynamic light scattering (DLS, Malvern Zetasizer Nano-ZS). Adjustment of pH was made using NaOH or HCl. Dimensions and surface morphology of freeze-dried microgels were examined by scanning electron microscopy (SEM/EDX) at an acceleration voltage of 20 kV. Transmission electron microscopy (TEM) images were performed on a Hitachi H-7500 transmission electron microscope operated at 80 kV. In addition, Rhodamine-B (Rh-B) labelling was applied to track the distribution of microgels within the microneedle array. The microgels were first immersed in 10 μg/mL of Rh-B for 12 hours at room temperature and then washed with DI-water three times. […] Glucagon and its degradation products were assayed using a reversed-phase high-performance liquid chromatography (RP-HPLC) system (Waters, MA, USA) equipped with a binary pump, autosampler, and UV detector (2899 Photodiode Detector Array, Waters, MA, USA). ^1H-NMR, and ^11B-NMR spectra were recorded in dimethyl sulfoxide (DMSO) and deuterium oxide (D2O) with a Bruker AM 400 spectrometer (400 MHz). […] Glucagon released from microgels or MNs were collected and measured using a CD spectropolarimeter (Jasco J-810, MD, USA) equipped with a Peltier temperature module set to 25° C. […]

[2] = tested on: STZ-induced type 1 diabetic male Sprague Dawley rats; assay: Antidiabetic effect of S.C. microgel injection in type 1 diabetic rats; type: in vivo, rat
Procedure: Male Sprague Dawley rats (Charles River) were treated with 65 mg/kg streptozotocin (STZ) to induce type 1 diabetes. The rats receiving STZ were carefully monitored for 1 week during which time the blood sugar was measured in 2 day intervals using a glucose meter (OneTouch® Ultra®, LifeScan, Inc., USA). Diabetic rats with blood sugar stabilized above 17 mmol/L were selected for the study. All rats were fasted for 4 hours prior to the experiment to eliminate the possible confounding effect of food (BERNICE […], 1965). The blood glucose levels of the diabetic rats were monitored every 15 minutes throughout the experiment. […] The blood glucose levels were measured every 15 min after injection and stopped whenever they were above/bellow euglycemia threshold.

glucagon
secondary structure of released glucagon (far-UV CD, peaks at 208 and 222 nm) ([1]; released at 50 mg/dL glucose, compared to fresh native glucagon): preserved
degradation products of released glucagon (RP-HPLC) ([1]; released from composite patch, compared to fresh glucagon): no detectable degradants

insulin
time after which blood glucose increased back to hyperglycemia ([2]; 0.5 IU/kg insulin S.C.): 3 h
occurrence of hypoglycemia ([2]; 1 IU/kg insulin S.C.): fell even further below the hypoglycemic threshold
time to reach euglycemia post-injection ([2]; 1 IU/kg insulin S.C.): ≤ 45 min
